The subject of experiment [1] is HLA-A*02:01 transgenic mouse. Nature of the experiment: In vivo CTL induction test, IFNγ ELISPOT of spleen cells, HLA-A*02:01 transgenic mouse. As to conditions: 250 μg/location intradermal with IFA, spleen after one week. The source says:
(§1) An HLA-A*02:01 transgenic mouse (C57BL/6CrHLA-A2.1DR1) is a mouse that is deficient in mouse MHC and expresses HLA-A*02:01 and HLA-DRB1*01:01, which are human MHCs, and the use of this mouse enables a peptide that can induce CTLs in humans to be selected. Furthermore, an HLA-A*24:02 transgenic mouse is a mouse that expresses HLA-A*24:02, which is a human MHC, and the use of this mouse enables a peptide that can induce CTLs in a human to be selected. Whether or not each peptide has an activity in inducing CTLs was determined by whether or not T cells that can react with the administered peptide are induced by administering the peptide to the mouse.
(§2) Specifically, it was carried as follows. First, the peptide was dissolved in dimethyl sulfoxide at 80 mg/mL, then diluted with water for injection, and mixed with an equal part of incomplete Freund's adjuvant (IFA or ISA51VG), thus forming an emulsion. The peptide thus emulsified was administered to the mouse tail base intradermally at two locations at a dose of 250 μg/location. One week after that, the mouse was euthanized with CO2 gas, the spleen was removed, and spleen cells were prepared. For measurement of IFNγ production, an IFNγ ELISPOT assay kit (Becton, Dickinson and Company) was used. On the day before preparing the spleen cells, an ELISPOT plate was treated with an anti-IFNγ antibody, and on the day it was blocked with 10% FBS-containing RPMI 1640 medium. The spleen cells prepared were plated on the blocked ELISPOT plate at 0.25 to 1.0×10^6 cells/well. The administered FAM83B-derived peptide was dissolved in DMSO at 40 mg/mL and further diluted with 10% RPMI 1640 medium to 20 μg/mL. The diluted peptide was added at 50 μL/well to the spleen cells derived from the animal to which the peptide had been administered. In vitro peptide restimulation was applied by culturing the spleen cells to which the peptide was added under 5% CO2 at 37° C. for 16 to 18 hours. After culturing, the supernatant was removed, and the ELISPOT plate was subjected to color development in accordance with the included protocol. The number of color developed spots was measured by KS-ELISPOT.

Another experiment addresses T1, HLA-A*02:01 (Homo sapiens, UniProt P04439, D140Y/D185E/D98H/E176V/E277Q/G131W/G231S/I119V/I121R/I166T/I218V/L300P/L318F/N151K/N90K/P208A/P217A/Q86G/Q94H/R138H/R169H/T345S).
T1 construct: T2 cells can usually only express a low level of empty MHC class I molecules on the cell surface; endogenous in cells; host or cells: T2-A24 cells (human lymphoblastoid T2 cells, TAP-deficient)
It counts as binding.

Experiment [2] concerns HLA-A*24:02 transgenic mouse. In words: In vivo CTL induction test, IFNγ ELISPOT of spleen cells, HLA-A*24:02 transgenic mouse. As to conditions: 250 μg/location intradermal with IFA, spleen after one week.
Description: as §1, §2

The target in another experiment is HLA-A*24:02 (Homo sapiens, UniProt P04439, D101N/D140Y/D185E/E176V/E190D/F33S/G103R/G107R/I119L/I121M/I306V/K335N/L105A/L180Q/L300P/N151K/N90K/Q86E/Q94H/R106L/R138H/R89G/T104I/T345S/V100E/W191G/Y123F). It counts as binding.

“And” between values parts separate entries of the source, which are not always exact repeats. Equal entries are not always repeated. “Also recorded” adds a separate entry of the source.

Turning to ALVMDIFTDV [Peptide F151_10], the “CTL inducibility (peptide-specific IFNγ production in spleen cells)” value (“CTL inducibility” below) in experiment [1] (listed as SEQ ID No: 37) is on record as “had CTL inducibility; also recorded: having CTL inducibility”. For the same sequence, in the experiment with HLA-A*02:01, the “binding to HLA-A02 (in words)” value is “capable of binding to HLA-A02”.
“EADPTGHSY [HLA-A*02:01 Negative control, MAGE-1161-169 peptide as an HLA-A02-negative control, reference compound]”: the “HLA-A*02:01 Negative control, MFI as solvent ratio” value with HLA-A*02:01 is 1.1 and 1.0.
As to FLAEEEINYI [Peptide F55_10], the “CTL inducibility” value in experiment [1] is “having CTL inducibility”. Also, the “binding to HLA-A02 (in words)” value in the experiment with HLA-A*02:01 was “capable of binding to HLA-A02”.
Taken in the same sequence, the figures for FLAEEEINYIL [Peptide F55_11] were “having CTL inducibility” and “capable of binding to HLA-A02”.
In the same order, the values of FLLVDCQKVM [Peptide F231_10] are “having CTL inducibility” and “capable of binding to HLA-A02”.
Take FLVQERVSDFL [Peptide F46_11]: in the experiment with HLA-A*02:01, the “Evaluation results HLA-A0201, mean fluorescence intensity (MFI) as solvent ratio” value worked out at 1.4.
On to GLLGGTHIDLL [Peptide F114_11], for which, in experiment [1], the “CTL inducibility” value is “having CTL inducibility”. In addition, in the experiment with HLA-A*02:01, the “binding to HLA-A02 (in words)” value is “capable of binding to HLA-A02”.
Consider GWPYVMPGLL [Peptide F107_10], for which, in experiment [2] (listed as SEQ ID No: 6), the “CTL inducibility” value was “had CTL inducibility; also recorded: having CTL inducibility”. For the same sequence, the “binding to HLA-A24 (in words)” value with HLA-A*24:02 was “capable of binding to HLA-A024”.
As for HLLTIKETI [Peptide F131_9], the “CTL inducibility” value in experiment [1] (listed as SEQ ID No: 35) is recorded as “had CTL inducibility; also recorded: having CTL inducibility”. Further, the “binding to HLA-A02 (in words)” value with HLA-A*02:01 is reported as “capable of binding to HLA-A02”.
In the case of HYKEWYRVAI [Peptide F23_10], the “CTL inducibility” value in experiment [2] (listed as SEQ ID No: 4) and in experiment [1] (listed as SEQ ID No: 4) was “had CTL inducibility; also recorded: having CTL inducibility” each time. In addition, the “binding to HLA-A24 (in words)” value in the experiment with HLA-A*24:02 is “capable of binding to HLA-A024”. Besides, in the experiment with HLA-A*02:01, the “binding to HLA-A02 (in words)” value is given as “capable of binding to HLA-A02”.
Consider KVIALVMDI [Peptide F148_9], for which the “CTL inducibility” value in experiment [2] and in experiment [1] was “having CTL inducibility” in each case. For the same sequence, the “binding to HLA-A24 (in words)” value with HLA-A*24:02 is given as “capable of binding to HLA-A024”. Further, the “binding to HLA-A02 (in words)” value with HLA-A*02:01 is recorded as “capable of binding to HLA-A02”.
As to KVMYGSYSYMWSF [Peptide F238_13], the “CTL inducibility” value in experiment [2] is “having CTL inducibility”. In addition, the “binding to HLA-A24 (in words)” value with HLA-A*24:02 was “capable of binding to HLA-A024”.
For LLDESNFNHFL [Peptide F179_11], the “CTL inducibility” value in experiment [1] (listed as SEQ ID No: 38) is given as “had CTL inducibility; also recorded: having CTL inducibility”. Moreover, the “binding to HLA-A02 (in words)” value with HLA-A*02:01 is “capable of binding to HLA-A02”.
For LVQERVSDFL [Peptide F47_10], the “CTL inducibility” value in experiment [2] (listed as SEQ ID No: 75) is listed as “had CTL inducibility; also recorded: having CTL inducibility”. Further, the “binding to HLA-A24 (in words)” value with HLA-A*24:02 is reported as “capable of binding to HLA-A024”.
Take LYARSCVPSSF [Peptide F276_11]: the “CTL inducibility” value in experiment [2] (listed as SEQ ID No: 14) is recorded as “had CTL inducibility; also recorded: having CTL inducibility”. The “binding to HLA-A24 (in words)” value with HLA-A*24:02 is “capable of binding to HLA-A024”.
In the case of MVQIITGQLV [Peptide F257_10], in experiment [1], the “CTL inducibility” value is “having CTL inducibility”. Besides, in the experiment with HLA-A*02:01, the “binding to HLA-A02 (in words)” value is listed as “capable of binding to HLA-A02”.
In the same order, the values of NLDLGWPYV [Peptide F103_9] are “having CTL inducibility” and “capable of binding to HLA-A02”.
With NYIEPHYKEW [Peptide F18_10], the “CTL inducibility” value in experiment [2] (listed as SEQ ID No: 74) is recorded as “had CTL inducibility; also recorded: having CTL inducibility”. Also, the “binding to HLA-A24 (in words)” value in the experiment with HLA-A*24:02 is reported as “capable of binding to HLA-A024”.
For PFCKIESSI [Peptide F939_9], in experiment [2] (listed as SEQ ID No: 23), the “CTL inducibility” value was “had CTL inducibility; also recorded: having CTL inducibility”. Further, the “binding to HLA-A24 (in words)” value with HLA-A*24:02 is “capable of binding to HLA-A024”.
As for PLPESIPKL [Peptide F594_9], the “Evaluation results HLA-A0201, mean fluorescence intensity (MFI) as solvent ratio” value with HLA-A*02:01 is reported as 1.4.
Turning to “RGYVYQGL [HLA-A*24:02 Negative control, reference compound]”, the “HLA-A*24:02 Negative control, MFI as solvent ratio” value at HLA-A*24:02 is 1.0 and 1.1.
As to RLCSSSDTLV [Peptide F799_10], the “CTL inducibility” value in experiment [1] (listed as SEQ ID No: 57) is listed as “had CTL inducibility; also recorded: having CTL inducibility”. Further, the “binding to HLA-A02 (in words)” value with HLA-A*02:01 was “capable of binding to HLA-A02”.
In the case of SMVQIITGQLV [Peptide F256_11], in experiment [1] (listed as SEQ ID No: 60), the “CTL inducibility” value is recorded as “had CTL inducibility; also recorded: having CTL inducibility”. Moreover, in the experiment with HLA-A*02:01, the “binding to HLA-A02 (in words)” value is “capable of binding to HLA-A02”.
As to SYGRSSPLL [Peptide F971_9], the “CTL inducibility” value in experiment [2] (listed as SEQ ID No: 24) is given as “had CTL inducibility; also recorded: having CTL inducibility”. In addition, the “binding to HLA-A24 (in words)” value in the experiment with HLA-A*24:02 was “capable of binding to HLA-A024”.
With SYMWSFEKAHL [Peptide F245_11], the “CTL inducibility” value in experiment [2] (listed as SEQ ID No: 12) is “had CTL inducibility; also recorded: having CTL inducibility”. Besides, the “binding to HLA-A24 (in words)” value with HLA-A*24:02 is “capable of binding to HLA-A024”.
In the case of TLSSGTYWPV [Peptide F86_10], the “CTL inducibility” value in experiment [1] is on record as “having CTL inducibility”. In addition, the “binding to HLA-A02 (in words)” value with HLA-A*02:01 is listed as “capable of binding to HLA-A02”.
As to TYQHSVSSL [Peptide F305_9], the “CTL inducibility” value in experiment [2] (listed as SEQ ID No: 15) is “had CTL inducibility; also recorded: having CTL inducibility”. For the same sequence, in the experiment with HLA-A*24:02, the “binding to HLA-A24 (in words)” value is on record as “capable of binding to HLA-A024”.
Take VIALVMDIFT [Peptide F149_10]: in experiment [2], the “CTL inducibility” value is listed as “having CTL inducibility”. In addition, the “binding to HLA-A24 (in words)” value in the experiment with HLA-A*24:02 is recorded as “capable of binding to HLA-A024”.
In the same order, the values of VMDIFTDVDIF [Peptide F153_11] are “having CTL inducibility” and “capable of binding to HLA-A024”.
For the sequence VMYGSYSYMW [Peptide F239_10], the “CTL inducibility” value in experiment [2] was “having CTL inducibility”. The “binding to HLA-A24 (in words)” value in the experiment with HLA-A*24:02 is recorded as “capable of binding to HLA-A024”.
As to VYILLDESNF [Peptide F176_10], in experiment [2] (listed as SEQ ID No: 9), the “CTL inducibility” value is given as “had CTL inducibility; also recorded: having CTL inducibility”. Also, in the experiment with HLA-A*24:02, the “binding to HLA-A24 (in words)” value was “capable of binding to HLA-A024”.
Consider YILKNVQKV [Peptide F63_9], for which, in experiment [1], the “CTL inducibility” value is recorded as “having CTL inducibility”. The “binding to HLA-A02 (in words)” value with HLA-A*02:01 was “capable of binding to HLA-A02”.
